One data set concerns U2-OS cells. Nature of the data set: Colocalization of +36GFP fusions with lysosomal membrane (confocal microscopy). It counts as cell-based. The following applies: 5 μM, 1 hr. The protocol: U-2 OS (ATCC) cells were cultured in DMEM supplemented with 10% (v/v) inactivated FBS (Corning), 2 mM glutamine, penicillin (100 IU/mL), and streptomycin (100 μg/mL) at 37° C. and 5% CO2. The glass-bottom coverslip chambers were pre-coated with 500 μg/mL of Matrigel (Corning). Transfection of LAMP1-HaloTagTM was performed using Lonza Nucleofector system according to the manufacturer's specifications. After overnight of recovery and expression, the cells expressing LAMP1-HaloTagTM were labeled with 100 nM JF646-HTL for 30 minutes and washed three times with pre-warmed DMEM medium. The final concentration of 5 μM+36GFP fusion proteins was incubated with the LAMP1-HaloTagTM expressing U-2 OS cells on a pre-coated coverslip for 1 hr. Cells were fixed with 4% paraformaldehyde for 20 min at room temperature (RT) and quenched/rinsed with PBS supplemented with 30 mM glycine. Then, the coverslips were mounted on FluoroSaveTM (Millipore). For pH measurement of the lysosome, LysoSensorTM Yellow/Blue DND-160 was incubated at 1 mg/mL overnight and washed twice prior to imaging (54). The final concentration of 5 μM protein was incubated with the LAMP1-HaloTag expressing U2-OS cells that were loaded with 1 mg/mL LysoSensorTM Yellow/Blue DND-160 for 1 hr. In separate chambers, LysoSensorTM Yellow/Blue DND-160 loaded cells were incubated with bafilomycin A1 (1 μM) and chloroquine (50 μM) for 1 hr as a control. For fixed cell confocal microscopy, a customized Nikon TiE inverted scope outfitted with a Yokogawa spinning-disk scan head (#CSU-X1) along with an Andor iXonTM EM-CCD camera (DU-897) with […] exposure time was used to collect 3D images using an SR Apo TIRF 100×1.49 oil-immersion objective. […] coefficients were calculated in 3D with JF646 signal (LAMP-HaloTag) and +36GFP signal (corresponding proteins) using Imaris software with thresholding. Zeiss 880 equipped with AiryScanTM was also used to obtain high resolution images using a Plan-Apochromatic 63×/1.4 oil DIC objective.

Data set [1] in a line: Native mass spectrometry of pH-induced changes in oligomeric state. The class given is physicochemical. The following applies: for pH response of oligomeric state (pH-induced disassembly): pH ~7 to ~3. Put shortly: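 Protein in 200 mM ammonium acetate/50 mM triethylammonium acetate, acid-adjusted to each target pH, was held 30 min on ice and sprayed by nESI at 5 μM monomer or 1.67 μM trimer. Oligomer fractions came from integrated charge-state series, then fitted by nonlinear least squares.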

A short description of data set [2]: Circular dichroism: GdmCl chemical denaturation and temperature melts. The following applies: for folding stability by GdmCl denaturation: CD at 222 nm, PBS pH 7.4 or Na2PO4-Citrate at lower pH.
Text: For low-pH experiments involving circular dichroism (CD), small-angle X-ray scattering (SAXS), and size exclusion chromatography (SEC), Na2PO4-Citrate buffer was used to ensure that a single buffer system could be used that was stable over the entire pH range to be tested. Buffers were made using established ratios of stock solutions of 0.2 M Na2PO4 and 0.1 M Citrate; final pH was adjusted using hydrochloric acid (HCl) or sodium hydroxide (NaOH) if needed.
CD wavelength scans (260 to 195 nm) and temperature melts (25 to 95° C.) were measured using a JASCO™ J-1500 or an AVIV™ model 420 CD spectrometer. Temperature melts monitored absorption signal at 222 nm and were carried out at a heating rate of 4° C./min; protein samples were at 0.25 mg/mL in either phosphate buffered saline (PBS) pH 7.4 or Na2PO4-Citrate at indicated pH values (see Buffers systems for varying pH). Guanidinium chloride (GdmCl) titrations were all performed on an AVIV 420 spectrometer with an automated titration apparatus using either PBS pH 7.4 or Na2PO4-Citrate buffers at indicated pH at room temperature, monitoring helical signal at 222 nm, using a protein concentration of 0.025 mg/mL in a 1 cm cuvette with stir bar. Each titration consisted of at least 30 evenly distributed concentration points with one minute mixing time for each step. Titrant solution consisted of the same concentration of protein in the same buffer system plus GdmCl; GdmCl concentration of starting solutions was determined by reactive index.
The nature of data set [3]: Cryo-electron microscopy and tomography of proteins with DOPC liposomes. The following applies: gold-nanoparticle conjugates; for membrane deformation and disruption by cryo-EM: pH 5. How it is done:
The conjugation reactions were performed immediately prior to use for electron microscopy imaging. […] The grids were prepared using a Vitrobot Mark IV (FEI) at 4 C and 100% humidity before being plunge-frozen in ethane cooled with liquid nitrogen.
Electron micrographs were collected using a Tecnai G2 Spirit™ Transmission Electron Microscope (FEI) operated at 120 kV and equipped with a 4k×4k Gatan Ultrascan CCD camera at a nominal magnification of 26,000× or a Tecnai TF-20 Transmission Electron Microscope (FEI) operated at 200 kV equipped with a K2 Summit Direct Electron Detector (Gatan).
Projection micrographs collected on the TF-20 were captured with the detector operating in counting mode. Specimens were imaged at 14,500 magnification, giving a pixel size of 0.254 nm, with a dose of ˜18e−/Å^2 across 75 200 ms movie frames. Data were collected in a semi-automated fashion using Leginon™ (49) and micrograph movie frames were aligned using MotionCor2™ (50). Leginon™ was used to collect tomography tilt series from −48 to +48 degrees bidirectionally in 3 degree increments with a total accumulated dose of ˜100 e−/Å^2. Reconstructions were processed using etomo in the IMOD™ software suite (31) with CTF parameters estimated from CTFFIND4™ (52). Reconstructed tomograms were visualized and measurements were made using ImageJ™ (53).

From patent US20220144895A1, “DE NOVO DESIGN OF TUNABLE PH-DRIVEN CONFORMATIONAL SWITCHES” (University of Washington, priority 2019, published 2022) come the findings set out here.

“Also recorded” adds a separate entry of the source.

B1: pRO-2: designed pH-responsive homotrimer, SEQ ID NO: 1-2 (protein)
chain 1: MGSHHHHHHGSGSENLYFQGSEYEIRKALEELKAATAELKRATASLRAITEELKKNPSEDALVEHNRAIVEHNAIIVEHNRIIAAVLELIVRAIK
chain 2: SEYEIRKALEELKAATAELKRATASLRAITEELKKNPSEDALVEHNRAIVEHNAIIVEHNRIIAAVLELIVRAIK
Regarding B1, the “colocalization with lysosomal membranes” value with U2-OS cells was “colocalize with lysosomal membranes and are not degraded”. Moreover, the “pH response of oligomeric state (pH-induced disassembly)” value in data set [1] (native MS) is “predominantly monomeric at pH 4”. In addition, the reversibility of disassembly entry in data set [1] (pH lowered with acetic acid, then raised by ammonia or buffer exchange) was “re-association of monomers into trimer”. The “effect of EDTA on helical fold or thermostability” value in data set [2] (10 mM EDTA, PBS pH 7.4) is “no effect on the helical fold or thermostability”. For the same molecule, in data set [2], the “folding stability by GdmCl denaturation” value was “decreased folding stability at low pH; also recorded: strongly pH dependent”. The “membrane deformation and disruption by cryo-EM” value in data set [3] was “widespread membrane deformation and disruption of the lipid bilayer”.

B2: pRO-2 I56V: pRO-2 mutant, SEQ ID NO: 17-18 (protein)
chain 1: MGSHHHHHHGSGSENLYFQGSEYEIRKALEELKAATAELKRATASLRAITEELKKNPSEDALVEHNRAIVEHNAIVVEHNRIIAAVLELIVRAIK
chain 2: GSEYEIRKALEELKAATAELKRATASLRAITEELKKNPSEDALVEHNRAIVEHNAIVVEHNRIIAAVLELIVRAIK
For B2, the “colocalization with lysosomal membranes” value is “clearly localized within lysosomes” with U2-OS cells; “colocalize with lysosomal membranes and are not degraded; also recorded: most strongly colocalized with the lysosomal membrane” with U2-OS cells (listed as I56V). For the same molecule, the “cooperativity of the pH-induced transition” value in data set [1] (native MS at different pH values) is “Neither of the mutations substantially affect the cooperativity”. Further, the “pH transition point of disassembly (pH set point, pH0)” value in data set [1] (native MS, evaluated from pH 7 down to pH 3) was “approximately 5.8 pH”. The “pH response of oligomeric state (pH-induced disassembly)” value in data set [1] (native MS) is reported as “most pH-sensitive”. Besides, the “folding stability by GdmCl denaturation” value in data set [2] is “decreases stability”. Also, the “membrane deformation and disruption by cryo-EM” value in data set [3] was “widespread membrane deformation and disruption of the lipid bilayer”. Further, in data set [3] (pH 5 and pH 8), the “interaction with liposomes by cryo-EM” value was “directly interacts with liposomes at pH 5 but not at pH 8; also recorded: interacts directly with liposomes at pH 5 but not pH 8”.
